Results reported in paper doi:10.1101/677344.

Tests used:
[1] = molecular target: AausFP1 (Aequorea cf. australis); test: crystal structure
[2] = molecular target: AausFP2 (Aequorea cf. australis); test: crystal structure

| Substance | stoichiometry N [1] | stoichiometry N [2] |
| --- | --- | --- |
| AausFP1 (natural protein) | 2 | – |
| AausFP2 (natural protein) | – | 2 |
